Measured values as given in the supplement of paper PMC9732359.
± gives the uncertainty stated by the source.

Test: protein stability index of a GFP-peptide fusion (yeast GPS) (PSI 1-4); higher = more stable; sorted into four equal gates, so the index is relative within each strain
How it was run: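 Plasmids in a pooled yeast library fused tiled 17-residue yeast protein peptides downstream of GFP and also expressed Cherry. Mid-log cultures grown without leucine were sorted into four equal gates by GFP/Cherry fluorescence ratio. Each gate's plasmids were PCR-amplified and Illumina-sequenced, and reads were matched to strains by barcodes. The protein stability index is derived by multiplying each gate's read frequency by its gate number and summing the results.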

SASHILIPASDLSWSKQ [PRP8]
protein stability index (doa10∆): 1.48 ± 0.069
protein stability index (pdr5∆): 1.93 ± 0.058
protein stability index (san1∆): 1.53 ± 0.082
protein stability index (ubr1∆): 1.95 ± 0.038

SAVIIDEFKDITKEVTQ [YIL149C/MLP2]
protein stability index (doa10∆): 2.76 ± 0.088
protein stability index (pdr5∆): 2.89 ± 0.059
protein stability index (san1∆): 2.39 ± 0.06
protein stability index (ubr1∆): 2.8 ± 0.068

SAYEASMVYSNVGELIE [RRP4]
protein stability index (doa10∆): 1.64 ± 0.057
protein stability index (pdr5∆): 2.22 ± 0.054
protein stability index (san1∆): 2.32 ± 0.058
protein stability index (ubr1∆): 1.85 ± 0.048

SCGYPSAKTRSHNWAAK [RPL37B]
protein stability index (doa10∆): 2.95 ± 0.076
protein stability index (pdr5∆): 3.15 ± 0.059
protein stability index (san1∆): 3.3 ± 0.09
protein stability index (ubr1∆): 2.91 ± 0.069

SCISISDIISMLQISDD [RRI2]
protein stability index (doa10∆): 1.82 ± 0.083
protein stability index (pdr5∆): 1.34 ± 0.061
protein stability index (san1∆): 1.19 ± 0.12
protein stability index (ubr1∆): 1.14 ± 0.04

SCTLLERGHPKDNARIY [POP1]
protein stability index (doa10∆): 1.87 ± 0.056
protein stability index (pdr5∆): 2.15 ± 0.064
protein stability index (san1∆): 2.76 ± 0.055
protein stability index (ubr1∆): 2.99 ± 0.063

SDGEDGHIPWHILAVKK [SSN2]
protein stability index (doa10∆): 3.02 ± 0.11
protein stability index (pdr5∆): 2.97 ± 0.15
protein stability index (san1∆): 3.23 ± 0.1
protein stability index (ubr1∆): 3.16 ± 0.15

SDGQSRVKDIHLRKLLD [RET1]
protein stability index (doa10∆): 2.88 ± 0.061
protein stability index (pdr5∆): 2.98 ± 0.067
protein stability index (san1∆): 3.11 ± 0.068
protein stability index (ubr1∆): 2.99 ± 0.043

SDKPSLPSAVDGENDKK [YLR335W/NUP2]
protein stability index (doa10∆): 3.4 ± 0.08
protein stability index (pdr5∆): 3.42 ± 0.086
protein stability index (san1∆): 3.37 ± 0.071
protein stability index (ubr1∆): 3.35 ± 0.11

SDNIASLQYINIRGNTI [SMD1]
protein stability index (doa10∆): 3.08 ± 0.059
protein stability index (pdr5∆): 3.22 ± 0.056
protein stability index (san1∆): 2.86 ± 0.063
protein stability index (ubr1∆): 3.01 ± 0.048

SDPAAKKTATEPKQKAN [SRP21]
protein stability index (doa10∆): 3.21 ± 0.11
protein stability index (pdr5∆): 3.04 ± 0.09
protein stability index (san1∆): 3.32 ± 0.046
protein stability index (ubr1∆): 3.01 ± 0.11

SDPNNQSLNEMVKLIVM [YJL039C/NUP192]
protein stability index (doa10∆): 2.66 ± 0.066
protein stability index (pdr5∆): 2.74 ± 0.052
protein stability index (san1∆): 2.97 ± 0.078
protein stability index (ubr1∆): 2.35 ± 0.056

SDSLGPDTSNEICDLAY [SRB2]
protein stability index (doa10∆): 2.95 ± 0.065
protein stability index (pdr5∆): 3.17 ± 0.064
protein stability index (san1∆): 3.29 ± 0.065
protein stability index (ubr1∆): 3.31 ± 0.049

SDWNPQADLQAMDRAHR [ISW2]
protein stability index (doa10∆): 2.93 ± 0.16
protein stability index (pdr5∆): 3.23 ± 0.12
protein stability index (san1∆): 3.14 ± 0.11
protein stability index (ubr1∆): 3.39 ± 0.18

SEDVSRDHEKDTYRTLM [YIL149C/MLP2]
protein stability index (doa10∆): 3.36 ± 0.047
protein stability index (pdr5∆): 3.41 ± 0.051
protein stability index (san1∆): 3.43 ± 0.035
protein stability index (ubr1∆): 3.33 ± 0.047

SEEPTDFGFDLDIEKEA [MCD1]
protein stability index (doa10∆): 2.77 ± 0.25
protein stability index (ubr1∆): 3.24 ± 0.14

SEKQNDEEAAGASTVMK [PRP8]
protein stability index (doa10∆): 3.36 ± 0.15
protein stability index (pdr5∆): 3.18 ± 0.093
protein stability index (san1∆): 3.38 ± 0.11
protein stability index (ubr1∆): 3.43 ± 0.11

SELIRTTLDAEKVFTQG [FAS1]
protein stability index (doa10∆): 3.14 ± 0.067
protein stability index (pdr5∆): 3.16 ± 0.066
protein stability index (san1∆): 3.22 ± 0.079
protein stability index (ubr1∆): 3.08 ± 0.07

SELQRLSHENNVMLEKI [RPT5]
protein stability index (doa10∆): 3 ± 0.11
protein stability index (pdr5∆): 3.1 ± 0.068
protein stability index (san1∆): 2.89 ± 0.063
protein stability index (ubr1∆): 2.9 ± 0.051

SENRDKFLQEFINLLLN [IRR1]
protein stability index (doa10∆): 2.53 ± 0.069
protein stability index (pdr5∆): 2.07 ± 0.083
protein stability index (san1∆): 2.43 ± 0.076
protein stability index (ubr1∆): 2.21 ± 0.069

SESKQLGNTSSVANTPS [SWI3]
protein stability index (doa10∆): 3.08 ± 0.071
protein stability index (pdr5∆): 2.56 ± 0.057
protein stability index (san1∆): 2.98 ± 0.073
protein stability index (ubr1∆): 2.94 ± 0.046

SESVGAFLSFLAYRNYW [YJL039C/NUP192]
protein stability index (doa10∆): 1.69 ± 0.073
protein stability index (pdr5∆): 1.97 ± 0.11
protein stability index (san1∆): 1.72 ± 0.12
protein stability index (ubr1∆): 1.84 ± 0.084

SEVLVDTLDSKSNGSSD [ISW2]
protein stability index (doa10∆): 3.07 ± 0.07
protein stability index (pdr5∆): 3.15 ± 0.066
protein stability index (san1∆): 3.11 ± 0.054
protein stability index (ubr1∆): 3.04 ± 0.058

SFDFGNENEDEDEGTLN [ARP9]
protein stability index (doa10∆): 3.56 ± 0.14
protein stability index (pdr5∆): 3.38 ± 0.25
protein stability index (san1∆): 3.41 ± 0.1

SFFIASQLQEQFNKILP [FAS1]
protein stability index (doa10∆): 2.69 ± 0.15
protein stability index (pdr5∆): 3.13 ± 0.15
protein stability index (san1∆): 2.54 ± 0.081
protein stability index (ubr1∆): 2.77 ± 0.07

SFKGSPNERKAKQAKIR [SNF2]
protein stability index (doa10∆): 3.36 ± 0.12
protein stability index (pdr5∆): 3.56 ± 0.12
protein stability index (san1∆): 3.39 ± 0.18
protein stability index (ubr1∆): 3.12 ± 0.15

SFQKNSLHNTEKIMENK [AAR2]
protein stability index (doa10∆): 3.08 ± 0.057
protein stability index (pdr5∆): 3.22 ± 0.066
protein stability index (san1∆): 2.93 ± 0.042
protein stability index (ubr1∆): 2.96 ± 0.049

SFSDENSDDFFMDNSYD [ESC2]
protein stability index (doa10∆): 1.97 ± 0.068
protein stability index (pdr5∆): 1.8 ± 0.11
protein stability index (san1∆): 2.63 ± 0.1
protein stability index (ubr1∆): 1.81 ± 0.062

SFYDAIFFNIPLVAHLG [YJL039C/NUP192]
protein stability index (doa10∆): 1.73 ± 0.037
protein stability index (pdr5∆): 1.23 ± 0.042
protein stability index (san1∆): 2.02 ± 0.027
protein stability index (ubr1∆): 1.22 ± 0.034

SGEPIIAATQDFITGSY [RPO31]
protein stability index (doa10∆): 3.36 ± 0.1
protein stability index (pdr5∆): 3.3 ± 0.095
protein stability index (san1∆): 3.13 ± 0.12
protein stability index (ubr1∆): 3.18 ± 0.039

SGHFSTDSRTGQSTILV [CDC53]
protein stability index (doa10∆): 2.83 ± 0.047
protein stability index (pdr5∆): 2.8 ± 0.052
protein stability index (san1∆): 3.05 ± 0.038
protein stability index (ubr1∆): 3.11 ± 0.042

SGITDPYEMYKYVHVSE [FAS2]
protein stability index (doa10∆): 2.33 ± 0.072
protein stability index (pdr5∆): 2.63 ± 0.074
protein stability index (san1∆): 2.48 ± 0.07
protein stability index (ubr1∆): 2.4 ± 0.069

SGLFVDVKKRTYEAIDV [RPB2]
protein stability index (doa10∆): 2.48 ± 0.12
protein stability index (pdr5∆): 3.28 ± 0.12
protein stability index (san1∆): 2.99 ± 0.1
protein stability index (ubr1∆): 3.14 ± 0.097

SGNIQLDEIIEIARQMR [RPL12A]
protein stability index (doa10∆): 3.07 ± 0.12
protein stability index (pdr5∆): 3 ± 0.12
protein stability index (san1∆): 3.05 ± 0.08
protein stability index (ubr1∆): 3.35 ± 0.14

SGNTNGAGSAFGFSSSG [YOR098C/NUP1]
protein stability index (doa10∆): 3.25 ± 0.071
protein stability index (pdr5∆): 3.13 ± 0.064
protein stability index (san1∆): 3.07 ± 0.064
protein stability index (ubr1∆): 3.02 ± 0.087

SGQTFAYGVLDSNYKWD [PRE2]
protein stability index (doa10∆): 2.39 ± 0.075
protein stability index (pdr5∆): 2.76 ± 0.098
protein stability index (san1∆): 1.85 ± 0.14
protein stability index (ubr1∆): 2.7 ± 0.11

SGRCDGYILEGEELAFY [RPS8A]
protein stability index (doa10∆): 3.32 ± 0.12
protein stability index (pdr5∆): 3.44 ± 0.12
protein stability index (san1∆): 3.29 ± 0.093
protein stability index (ubr1∆): 3.36 ± 0.074

SGTSSDPDTKKVKESPA [YIL149C/MLP2]
protein stability index (doa10∆): 3.21 ± 0.059
protein stability index (pdr5∆): 3.2 ± 0.046
protein stability index (san1∆): 3.14 ± 0.038
protein stability index (ubr1∆): 3.23 ± 0.061

SGTYHLNCGNGMGIGFI [POP1]
protein stability index (doa10∆): 3.07 ± 0.077
protein stability index (pdr5∆): 2.93 ± 0.063
protein stability index (san1∆): 2.44 ± 0.077
protein stability index (ubr1∆): 3.11 ± 0.041

SGYVRSRGESDDSLNRL [RPS21A]
protein stability index (doa10∆): 2.94 ± 0.14
protein stability index (pdr5∆): 1.85 ± 0.074
protein stability index (san1∆): 2.17 ± 0.084
protein stability index (ubr1∆): 2.88 ± 0.059

SHFVSAVSTIASISLAI [RPP0]
protein stability index (doa10∆): 1.81 ± 0.073
protein stability index (pdr5∆): 1.37 ± 0.073
protein stability index (san1∆): 1.21 ± 0.13
protein stability index (ubr1∆): 1.11 ± 0.066

SHGNPVVDFLKRNGSTL [FAS1]
protein stability index (doa10∆): 3.02 ± 0.052
protein stability index (pdr5∆): 3.17 ± 0.049
protein stability index (san1∆): 3.1 ± 0.043
protein stability index (ubr1∆): 3.11 ± 0.038

SHILNSHSLALNEITNS [DSN1]
protein stability index (doa10∆): 2.14 ± 0.033
protein stability index (pdr5∆): 2.41 ± 0.035
protein stability index (san1∆): 2.28 ± 0.037
protein stability index (ubr1∆): 2.36 ± 0.03

SHKTTKEDTVSWFKQKY [RPL11A]
protein stability index (doa10∆): 1.8 ± 0.064
protein stability index (pdr5∆): 1.56 ± 0.054
protein stability index (san1∆): 1.36 ± 0.12
protein stability index (ubr1∆): 1.53 ± 0.064

SHNWAAKAKRRHTTGTG [RPL37B]
protein stability index (doa10∆): 3.29 ± 0.1
protein stability index (pdr5∆): 2.92 ± 0.058
protein stability index (san1∆): 3.33 ± 0.071
protein stability index (ubr1∆): 3.35 ± 0.056

SHPEKRMIPPRMVRSIM [SSN3]
protein stability index (doa10∆): 3.25 ± 0.1
protein stability index (pdr5∆): 3.01 ± 0.075
protein stability index (san1∆): 2.33 ± 0.065
protein stability index (ubr1∆): 3.19 ± 0.066

SIDSTSRIELELKNIGL [ECM29]
protein stability index (doa10∆): 2.59 ± 0.052
protein stability index (pdr5∆): 2.75 ± 0.045
protein stability index (san1∆): 2.74 ± 0.042
protein stability index (ubr1∆): 2.44 ± 0.028

SIESKLEEHKNHLDELQ [SMC1]
protein stability index (doa10∆): 2.99 ± 0.093
protein stability index (pdr5∆): 2.86 ± 0.13
protein stability index (san1∆): 2.92 ± 0.069
protein stability index (ubr1∆): 3 ± 0.076

SIEVQSLPEFFTNRIPS [SWI3]
protein stability index (doa10∆): 2.64 ± 0.055
protein stability index (pdr5∆): 2.66 ± 0.048
protein stability index (san1∆): 2.51 ± 0.064
protein stability index (ubr1∆): 2.61 ± 0.047

SIGEPGTQMTLKTFHFA [RPO31]
protein stability index (san1∆): 2.56 ± 0.096
protein stability index (ubr1∆): 2.65 ± 0.17

SIGSIYQWNLDGLQQLD [RPN1]
protein stability index (doa10∆): 3.26 ± 0.1
protein stability index (pdr5∆): 3.4 ± 0.068
protein stability index (san1∆): 1.93 ± 0.1
protein stability index (ubr1∆): 2.96 ± 0.067

SIHVNRVERSSRSTDNF [RRI1]
protein stability index (doa10∆): 3.32 ± 0.074
protein stability index (pdr5∆): 3.18 ± 0.069
protein stability index (san1∆): 3.03 ± 0.058
protein stability index (ubr1∆): 3.02 ± 0.051

SILPTRDDLFVRNLQGI [NUT1]
protein stability index (doa10∆): 1.69 ± 0.094
protein stability index (pdr5∆): 2.19 ± 0.11
protein stability index (san1∆): 2.05 ± 0.15
protein stability index (ubr1∆): 1.56 ± 0.058
